For the data set, the target named is T1, SsNdt80b-His (Sclerotinia sclerotiorum, UniProt A0A1D9PYE1 1-599).
T1 sequence: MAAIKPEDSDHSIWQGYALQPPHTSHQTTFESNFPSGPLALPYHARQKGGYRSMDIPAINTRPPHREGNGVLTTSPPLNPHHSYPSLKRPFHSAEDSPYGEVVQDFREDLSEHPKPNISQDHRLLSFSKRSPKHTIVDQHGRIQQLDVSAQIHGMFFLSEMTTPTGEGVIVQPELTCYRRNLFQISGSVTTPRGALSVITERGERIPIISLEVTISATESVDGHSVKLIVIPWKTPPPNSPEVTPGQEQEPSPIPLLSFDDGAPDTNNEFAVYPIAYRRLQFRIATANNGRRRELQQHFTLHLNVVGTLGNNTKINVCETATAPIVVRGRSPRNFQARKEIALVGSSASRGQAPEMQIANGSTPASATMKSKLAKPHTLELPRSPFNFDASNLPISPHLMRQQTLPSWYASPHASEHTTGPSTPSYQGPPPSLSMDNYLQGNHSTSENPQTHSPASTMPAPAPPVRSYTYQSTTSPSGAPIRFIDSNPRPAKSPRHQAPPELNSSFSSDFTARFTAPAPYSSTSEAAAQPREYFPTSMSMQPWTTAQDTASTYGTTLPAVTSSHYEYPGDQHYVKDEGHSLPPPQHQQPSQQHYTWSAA
Nature of the data set: EMSA; LightShift Chemiluminescence EMSA Kit binding buffer (composition not given); protein 5 min on ice, then probe 30 min at room temperature; 6% native PAGE. To be noted: protein: recombinant; tags: His; label: 5'-biotin on strand 1; printed biotin strand is 39 nt, reverse strand 40 nt: 1 nt 5' overhang (T) on strand 2; unlabelled forward oligo S65 is 40 nt and blunt with S64. (Mobility shift assays separate free from complexed probe on a gel.)

B1: P-SsSNF1 biotin probe (dsDNA)
DNA 1: TGAAGAGCAGCTGGAACCACAAATCAACTTTTCCTTTAA
DNA 2: TTTAAAGGAAAAGTTGATTTGTGGTTCCAGCTGCTCTTCA
Turning to B1, the binding result was “binds”.

For the origin of these results see PMC12008772, “Transcription Factor SsNdt80b Maintains Optimal Expression of SsSNF1 to Modulate Growth and Pathogenicity in Sclerotinia sclerotiorum”.
